According to US20180155451A1 (published 2018):

T1: FcγRIIb, extracellular domain with C-terminal His tag (human, UniProt P31994 43-217)
T1 construct: extracellular domain; soluble receptor used as Biacore analyte; also called 2b; FcgRIIb
T1 sequence (looked up): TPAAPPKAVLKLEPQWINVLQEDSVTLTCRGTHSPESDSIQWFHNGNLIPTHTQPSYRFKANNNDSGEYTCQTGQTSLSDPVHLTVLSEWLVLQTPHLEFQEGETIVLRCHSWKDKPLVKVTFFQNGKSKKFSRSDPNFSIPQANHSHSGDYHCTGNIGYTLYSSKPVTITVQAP

T2: FcγRIIa R (FcγRIIa, allotype R, Arg at position 131), extracellular domain with C-terminal His tag (human, UniProt P12318 34-217)
T2 construct: extracellular domain; soluble receptor used as Biacore analyte; also called 2aR; FcgRIIa R
T2 sequence (looked up): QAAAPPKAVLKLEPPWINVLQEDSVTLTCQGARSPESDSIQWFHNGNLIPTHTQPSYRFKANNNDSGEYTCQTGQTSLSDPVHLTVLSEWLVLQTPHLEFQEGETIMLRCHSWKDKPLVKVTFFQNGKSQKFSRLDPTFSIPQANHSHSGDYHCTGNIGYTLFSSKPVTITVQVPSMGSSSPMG


Experiments:
[1] = target: T1, FcγRIIb, extracellular domain with …; test: Biacore SPR; binding relative to GpH7-A5/GpH7-B3/GpL16-k0 (=100)
[2] = target: T2, FcγRIIa R (FcγRIIa, allotype R, Arg at …); test: as above
[3] = target: T2, FcγRIIa R (FcγRIIa, allotype R, Arg at …); test: Biacore SPR; He/Con_2aR divided by He/Con_2b (FcγRIIb)
Description: The heterodimerized antibodies He Abs in which one of the H chains was introduced with an alteration were assayed for their binding activities to each activating FcγR and inhibitory FcγR according to the method described in Example 4. […] The activating FcγRs in FIGS. 26, 27, 28, and 29 are FcγRIa, FcγRIIa (R), FcγRIIa (H), and FcγRIIIa, respectively.
Analysis of interaction between objective antibody and the FcγR was carried out using Biacore T100 (GE Healthcare). HBS-EP+ (GE Healthcare) was used as the running buffer, and the measurement temperature was set to 25° C. Chips produced by immobilizing the antigen peptide by the amine coupling method to a Series S Sencor Chip CM5 (GE Healthcare), or alternatively, chips produced by allowing preliminarily biotinylated antigen peptides to interact with and immobilize onto a Series S Sensor Chip SA (certified) (GE Healthcare) were used. Antibodies of interest were captured onto an antigen peptide-immobilized chip, and allowed to interact to each FcγR diluted with running buffer. To regenerate and repeatedly use the chip, the antibodies captured on the chip were washed off by reacting 10 mM glycine-HCl, pH 1.5.

Binder | He/Con_2b (IIb binding) [1] | He/Con_2aR (IIaR binding) [2] | IIaR/IIb (He_2aR/2b) [3]
heterodimerized antibody GpH7-A5/GpH7-B3 variant P238_08L/GpL16-k0 (antibody, human IgG1, kappa, He Ab: anti-glypican-3 IgG1, alteration in one H chain only; also called He Ab) heavy 1: not shown heavy 2: not shown light: DIVMTQSPLSLPVTPGEPASISCQASESLVHSNRNTYLHWYLQKPGQSPQLLIYKVSNRFSGVPDRFSGSGSGTDFTLKISRVEAEDVGVYYCSQNTHVPPTFGQGTKVEIERTVAAPSVFIFPPSDEQLKSGTASVVCLLNNFYPREAKVQWKVDNALQSGNSQESVTEQDSKDSTYSLSSTLTLSKADYEKHKVYACEVTHQGLSSPVTKSFNRGEC | 204 % of control | 140 % of control | 0.68
heterodimerized antibody GpH7-A5/GpH7-B3 variant S267_09D/GpL16-k0 (antibody, human IgG1, kappa, He Ab: anti-glypican-3 IgG1, alteration in one H chain only; also called He Ab) heavy 1: not shown heavy 2: not shown light: DIVMTQSPLSLPVTPGEPASISCQASESLVHSNRNTYLHWYLQKPGQSPQLLIYKVSNRFSGVPDRFSGSGSGTDFTLKISRVEAEDVGVYYCSQNTHVPPTFGQGTKVEIERTVAAPSVFIFPPSDEQLKSGTASVVCLLNNFYPREAKVQWKVDNALQSGNSQESVTEQDSKDSTYSLSSTLTLSKADYEKHKVYACEVTHQGLSSPVTKSFNRGEC | 310 % of control | 173 % of control | 0.56
heterodimerized antibody GpH7-A5/GpH7-B3 variant S267_06M/GpL16-k0 (antibody, human IgG1, kappa, He Ab: anti-glypican-3 IgG1, alteration in one H chain only; also called He Ab) heavy 1: not shown heavy 2: not shown light: DIVMTQSPLSLPVTPGEPASISCQASESLVHSNRNTYLHWYLQKPGQSPQLLIYKVSNRFSGVPDRFSGSGSGTDFTLKISRVEAEDVGVYYCSQNTHVPPTFGQGTKVEIERTVAAPSVFIFPPSDEQLKSGTASVVCLLNNFYPREAKVQWKVDNALQSGNSQESVTEQDSKDSTYSLSSTLTLSKADYEKHKVYACEVTHQGLSSPVTKSFNRGEC | 210 % of control | 122 % of control | 0.58
heterodimerized antibody GpH7-A5/GpH7-B3 variant S267_02A/GpL16-k0 (antibody, human IgG1, kappa, He Ab: anti-glypican-3 IgG1, alteration in one H chain only; also called He Ab) heavy 1: not shown heavy 2: not shown light: DIVMTQSPLSLPVTPGEPASISCQASESLVHSNRNTYLHWYLQKPGQSPQLLIYKVSNRFSGVPDRFSGSGSGTDFTLKISRVEAEDVGVYYCSQNTHVPPTFGQGTKVEIERTVAAPSVFIFPPSDEQLKSGTASVVCLLNNFYPREAKVQWKVDNALQSGNSQESVTEQDSKDSTYSLSSTLTLSKADYEKHKVYACEVTHQGLSSPVTKSFNRGEC | 243 % of control | 155 % of control | 0.64
heterodimerized antibody GpH7-A5/GpH7-B3 variant P238_09D/GpL16-k0 (antibody, human IgG1, kappa, He Ab: anti-glypican-3 IgG1, alteration in one H chain only; also called He Ab) heavy 1: not shown heavy 2: not shown light: DIVMTQSPLSLPVTPGEPASISCQASESLVHSNRNTYLHWYLQKPGQSPQLLIYKVSNRFSGVPDRFSGSGSGTDFTLKISRVEAEDVGVYYCSQNTHVPPTFGQGTKVEIERTVAAPSVFIFPPSDEQLKSGTASVVCLLNNFYPREAKVQWKVDNALQSGNSQESVTEQDSKDSTYSLSSTLTLSKADYEKHKVYACEVTHQGLSSPVTKSFNRGEC | 221 % of control | 148 % of control | 0.67
heterodimerized antibody GpH7-A5/GpH7-B3 variant P238_04F/GpL16-k0 (antibody, human IgG1, kappa, He Ab: anti-glypican-3 IgG1, alteration in one H chain only; also called He Ab) heavy 1: not shown heavy 2: not shown light: DIVMTQSPLSLPVTPGEPASISCQASESLVHSNRNTYLHWYLQKPGQSPQLLIYKVSNRFSGVPDRFSGSGSGTDFTLKISRVEAEDVGVYYCSQNTHVPPTFGQGTKVEIERTVAAPSVFIFPPSDEQLKSGTASVVCLLNNFYPREAKVQWKVDNALQSGNSQESVTEQDSKDSTYSLSSTLTLSKADYEKHKVYACEVTHQGLSSPVTKSFNRGEC | 312 % of control | 174 % of control | 0.56

Now from value to binder:

He/Con_2b (IIb binding) [1] | He/Con_2aR (IIaR binding) [2] | IIaR/IIb (He_2aR/2b) [3] | Binder
218 % of control | 156 % of control | 0.72 | heterodimerized antibody GpH7-A5/GpH7-B3 variant P238_15Y/GpL16-k0 (antibody, human IgG1, kappa, He Ab: anti-glypican-3 IgG1, alteration in one H chain only; also called He Ab) heavy 1: not shown heavy 2: not shown light: DIVMTQSPLSLPVTPGEPASISCQASESLVHSNRNTYLHWYLQKPGQSPQLLIYKVSNRFSGVPDRFSGSGSGTDFTLKISRVEAEDVGVYYCSQNTHVPPTFGQGTKVEIERTVAAPSVFIFPPSDEQLKSGTASVVCLLNNFYPREAKVQWKVDNALQSGNSQESVTEQDSKDSTYSLSSTLTLSKADYEKHKVYACEVTHQGLSSPVTKSFNRGEC
193 % of control | 144 % of control | 0.75 | heterodimerized antibody GpH7-A5/GpH7-B3 variant P271_01G/GpL16-k0 (antibody, human IgG1, kappa, He Ab: anti-glypican-3 IgG1, alteration in one H chain only; also called He Ab) heavy 1: not shown heavy 2: not shown light: DIVMTQSPLSLPVTPGEPASISCQASESLVHSNRNTYLHWYLQKPGQSPQLLIYKVSNRFSGVPDRFSGSGSGTDFTLKISRVEAEDVGVYYCSQNTHVPPTFGQGTKVEIERTVAAPSVFIFPPSDEQLKSGTASVVCLLNNFYPREAKVQWKVDNALQSGNSQESVTEQDSKDSTYSLSSTLTLSKADYEKHKVYACEVTHQGLSSPVTKSFNRGEC
